# Measured values taken from article PMC11557686.
# B1: SmBiT-SEC24A [not stated] / LgBiT-SURF4 [not stated] (parent)
# chain 1: MSQPGIPASGGAPASLQAQNGAALASGSPYTNGPVQNALLSSQESVSQGYNFQLPGSYPHPIPAKTLNPVSGQSNYGGSQGSGQTLNRPPVASNPVTPSLHSGPAPRMPLPASQNPATTPMPSSSFLPEANLPPPLNWQYNYPSTASQTNHCPRASSQPTVSGNTSLTTNHQYVSSGYPSLQNSFIKSGPSVPPLVNPPLPTTFQPGAPHGPPPAGGPPPVRALTPLTSSYRDVPQPLFNSAVNQEGITSNTNNGSMVVHSSYDEIEGGGLLATPQLTNKNPKMSRSVGYSYPSLPPGYQNTTPPGATGVPPSSLNYPSGPQAFTQTPLGANHLTTSMSGLSLQPEGLRVVNLLQERNMLPSTPLKPPVPNLHEDIQKLNCNPELFRCTLTSIPQTQALLNKAKLPLGLLLHPFKDLVQLPVVTSSTIVRCRSCRTYINPFVSFLDQRRWKCNLCYRVNDVPEEFLYNPLTRVYGEPHRRPEVQNATIEFMAPSEYMLRPPQPPVYLFVFDVSHNAVETGYLNSVCQSLLDNLDLLPGNTRTKIGFITFDSTIHFYGLQESLSQPQMLIVSDIEDVFIPMPENLLVNLNESKELVQDLLKTLPQMFTKTLETQSALGPALQAAFKLMSPTGGRMSVFQTQLPTLGVGALKPREEPNHRSSAKDIHMTPSTDFYKKLALDCSGQQVAVDLFLLSGQYSDLASLGCISRYSAGSVYYYPSYHHQHNPVQVQKLQKELQRYLTRKIGFEAVMRIRCTKGLSIHTFHGNFFVRSTDLLSLPNVNPDAGYAVQMSVEESLTDTQLVSFQSALLYTSSKGERRIRVHTLCLPVVSTLNDVFLGADVQAISGLLANMAVDRSMTASLSDARDALVNAVIDSLSAYRSSVLSNQQPGLMVPFSLRLFPLFVLALLKQKSFQTGTNARLDERIFAMCQVKNQPLVYLMLTTHPSLYRVDNLSDEGALNISDRTIPQPPILQLSVEKLSRDGAFLMDAGSVLMLWVGKNCTQNFLSQVLGVQNYASIPQPMTDLPELDTPESARIIAFISWLREQRPFFPILYVIRDESPMKANFLQNMIEDRTESALSYYEFLLHIQQQVNK
# chain 2: MGQNDLMGTAEDFADQFLRVTKQYLPHVARLCLISTFLEDGIRMWFQWSEQRDYIDTTWNCGYLLASSFVFLNLLGQLTGCVLVLSRNFVQYACFGLFGIIALQTIAYSILWDLKFLMRNLALGGGLLLLLAESRSEGKSMFAGVPTMRESSPKQYMQLGGRVLLVLMFMTLLHFDASFFSIVQNIVGTALMILVAIGFKTKLAALTLVVWLFAINVYFNAFWTIPVYKPMHDFLKYDFFQTMSVIGGLLLVVALGPGGVSMDEKKKEW
# Variants of: B1
# Assay: NanoBiT
# Settings: with LgBiT-SURF4; six technical replicates in each of three independent biological replicates; parent: 1; read off a plot
row,Variant,ratio to parent
1,chain 1 K813A,0.98
2,chain 1 R541A,1
3,chain 1 R750A R752A,0.5
4,chain 1 Y437A,0.62
